The values that follow come from publication PMC2063226, “High-affinity recombinant phage antibodies to the pan-carcinoma marker epithelial glycoprotein-2 for tumour targeting” (British Journal of Cancer, 1998).

Data set [1] has as its target recombinant epithelial glycoprotein-2 (EGP-2) (human) (UniProt P16422). Description: SPR; BIAcore; EGP-2 covalently coupled to a CM-5 sensorchip (350 RU, 'low-density' surface); antibody (at 200 nM) or antibody fragment flowed at 5 ul/min; koff fitted on t = 315-320 s (MOC-31 whole antibody: average of three fittings); kon from Ks against antibody concentration; room temperature; apparent values for the bivalent antibodies.

In data set [2] the target is T1, recombinant epithelial glycoprotein-2 (EGP-2) (human, UniProt P16422).
Target sequence in this assay (P16422 24-265): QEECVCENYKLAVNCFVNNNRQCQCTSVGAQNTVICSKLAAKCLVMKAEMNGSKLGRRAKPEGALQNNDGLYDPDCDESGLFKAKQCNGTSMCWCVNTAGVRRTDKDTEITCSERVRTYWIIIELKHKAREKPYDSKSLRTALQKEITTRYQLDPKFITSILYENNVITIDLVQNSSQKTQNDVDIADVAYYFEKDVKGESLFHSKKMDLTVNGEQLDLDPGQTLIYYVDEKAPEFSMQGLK
Data set [3] has as its target T1, recombinant epithelial glycoprotein-2 …. The data set can be described thus: SPR; BIAcore; EGP-2 covalently coupled to a CM-5 sensorchip (350 RU, 'low-density' surface); antibody (at 200 nM) or antibody fragment flowed at 5 ul/min; koff fitted on t = 315-320 s (MOC-31 whole antibody: average of three fittings); kon from Ks against antibody concentration; room temperature; apparent values for the bivalent antibodies. Particulars: both partners purified.

Data set [4] deals with the molecule itself. The data set can be described thus: SEC; gel filtration (Superdex column) of the IMAC-purified scFv preparations; monomeric and dimeric forms separated.

As to MOC-31 whole antibody, in data set [1], the Ka came to 4.24e+08 M⁻¹, the dissociation rate constant (koff) is 5e-05 s⁻¹, the association rate constant (kon) is 106000 M⁻¹ s⁻¹ and the t1/2 is 231 min.

B1: MOC-161 (antibody, V domains shown)
VH: QVQLQQSGTELIRPGTSVKISCKASGYAFTDYWLGWVKHRPGHGLEWIGDIYPGSDNTYYHEKFKGKATLTTDKSSSTAYMQLSSLTSEDSAVYFCARGLKGDYWGQGTTVTVSS
VL: DIQMTQSPSSLSAFSGGKVTITCKASQDIKKSIAWYQHKPGKGPRLLIHYTSTLQPGIPSRFSGSGSGEEYSFSISNLEPEDIATYYCQQYDNLRTFGGGTKLELK
On to B1, for which the binding result in data set [2] is on record as “binds”.

B2: 323/A3 antibody (antibody, V domains shown)
VH: QIQLVQSGPELKKPGETVKISCKASGYTFTNYGMNWVRQASGEGLKWMGWINTYTGEPTYGEDFKGRFAFSLETSASTAYLQINNLKNEDTATYFCARFGNYVDYWGQGTTLTVSS
VL: DIVMTQAAFSNPVTLGTSASISCRSSKNLLHSNGITYLYWYLQKPGQSPHLLIYQMSNLASGVPDRFSSSGSGTDFTLRISRVEAEDVGVYYCAQNLEIPRTFGGGTKLEIK
notes: CDR3 identical); Murine whole bivalent antibody; source: gift from Dr SO Warnaar (Centocor, Leiden); copies: 2 + 2
Turning to B2, in data set [3], the off-rate (koff) amounted to 0.00106 s⁻¹, the kon worked out at 251000 M⁻¹ s⁻¹ and the t1/2 was determined as 10.9 min.

B3: 17-1A antibody (antibody, V domains shown)
VH: QVQLQQSGAELVRPGTSVKVSCKASGYAFTNYLIEWVKQRPGQGLEWIGVINPGSGGTNYNEKFKGKATLTADKSSSTAYMQLSSLTSDDSAVYFCARDGPWFAYWGQGTLVTVSA
VL: NIVMTQSPKSMSMSVGERVTLTCKASENVVTYVSWYQQKPEQSPKLLIYGASNRYTGVPDRFTGSGSATDFTLTISSVQAEDLADYHCGQGYSYPYTFGGGTKLEIK
notes: Murine whole bivalent antibody; also called 17-lA; source: gift from Dr SO Warnaar (Centocor, Leiden); copies: 2 + 2
Take B3: in data set [3], the koff turned out to be 0.0382 s⁻¹, the kon was determined as 595000 M⁻¹ s⁻¹ and the t1/2 was determined as 0.3 min.

B4: chimeric 17-1A (antibody, V domains shown)
VH: QVQLQQSGAELVRPGTSVKVSCKASGYAFTNYLIEWVKQRPGQGLEWIGVINPGSGGTNYNEKFKGKATLTADKSSSTAYMQLSSLTSDDSAVYFCARDGPWFAYWGQGTLVTVSA
VL: NIVMTQSPKSMSMSVGERVTLTCKASENVVTYVSWYQQKPEQSPKLLIYGASNRYTGVPDRFTGSGSATDFTLTISSVQAEDLADYHCGQGYSYPYTFGGGTKLEIK
notes: as the VH of m2 (17-1A); as the VL of m2 (17-1A); Whole bivalent antibody; also called chimeric version of 17-1A; source: gift from Dr SO Warnaar (Centocor, Leiden); copies: 2 + 2
As to B4, in data set [3], the off-rate constant (koff) amounted to 0.0583 s⁻¹, the kon is 1.09e+06 M⁻¹ s⁻¹ and the t1/2 turned out to be 0.2 min.

B5: MOC-31 scFv (soluble) (scFv)
scFv: QVQLQQSGPELKKPGETVKISCKASGYTFTNYGMNWVKQAPGKGLKWMGWINTYTGESTYADDFKGRFAFSLETSASAAYLQINNLKNEDTATYFCARFAIKGDYWGQGTTVTVSSGGGGSGGGGSGGGGSDIVLTQSPFSNPVTLGTSASISCRSTKSLLHSNGITYLYWYLQKPGQSPQLLIYQMSNLASGVPDRFSSSGSGTDFTLRISRVEAEDVGVYYCAQNLEIPRTFGGGTKLEIKR
notes: 15-residue (Gly4Ser)3 linker, written out from the printed formula; The screening ELISA of the methods used clones in pCANTAB6 (His6 before c-myc); also called monovalent MOC-31 scFv; source: E. coli TG1, pUC119-polyHIS6myc, periplasm; purified (IMAC on Talon resin, gel filtration, monomer) for SPR; periplasmic preparation for immunohistochemistry; induced bacterial supernatant for ELISA; not …
As for B5, in data set [4], the binding result is recorded as “binds”. In data set [1], the off-rate (koff) was 0.00034 s⁻¹ and the t1/2 was found to be 34 min.
